Columns and labels:
TRALI in BALB/c mice = test: Two-event (LPS + anti-H-2Kd mAb) TRALI model; format: in vivo, mouse; details: i.v. administration
[1] = test system: ischemic stroke (tMCAO) in mice; test: Transient middle cerebral artery occlusion (tMCAO) stroke model; format: in vivo, mouse
Experimental: Next, the question of whether cerebral ischemia/reperfusion injury effects circulating levels of NETs was addressed. Wild-type C57BL/6 mice were subjected to 2 hours of transient middle cerebral artery occlusion (tMCAO), followed by 22 hours of reperfusion. Focal cerebral ischemia was induced by 60 or 120 min tMCAO. Mice were anesthetized with 2% isoflurane/oxygen mixture. Following a midline skin incision in the neck, the proximal common carotid artery, and the external carotid artery were ligated, and a standardized silicon rubber-coated 6.0 nylon monofilament (6021; Doccol Corp., Redlands, CA) was inserted and advanced via the right internal carotid artery to occlude the origin of the right MCA. […] The intraluminal suture was left in situ during the complete occlusion time. Then animals were re-anesthetized, and the occluding monofilament was withdrawn to allow reperfusion. In animals undergoing a sham treatment, the exact same procedure was followed except that the monofilament was only inserted three quarters of the normal distance that is necessary to occlude the MCA, after which it was immediately withdrawn. Some animals were exclusively used for laser-Doppler flowmetry (Periflux 5000, Perimed, Kings Park, NY) to monitor regional cerebral blood flow (rCBF) in the MCA territory.
Wild type (WT) and […] mice were subjected to 1 h of tMCAO and 23 h of reperfusion after which mice and brains were analyzed. Mice were killed 24 hours after initiation of tMCAO. Brains were quickly removed and cut into 2-mm-thick coronal sections using a mouse brain slice matrix. The slices were stained with 2% 2,3,5-triphenyl-tetrazolium chloride (TTC; Sigma-Aldrich, St. Louis, MO) in PBS to visualize the infarctions. Sections were photographed with a digital Nikon D70 camera and infarct areas (white) were measured blindly using Image J software (National Institutes of Health). Brain infarct volumes were measured by planimetry (FIG. 9A). Compared to the wild-type controls, DNase-1^−/− mice developed larger brain infarctions (84.10±7.24 mm^3 versus 58.50±4.04 mm^3, p<0.05, FIG. 9A).
Neurological function was assessed, blinded for the mouse genotype 24 h, after initiation of tMCAO, using the modified Bederson score (Bederson et al., Stroke 1986 17:472-6). This test determines global neurological function according to the following scoring system: 0, no deficit; 1, forelimb flexion; 2, decreased resistance to lateral push; 3, unidirectional circling; 4, longitudinal spinning; 5, no movement. The grip test was performed as described (Moran et al., PNAS 1995 92:5341-5). A mouse was placed on a wooden bar (3 mm in diameter, 40 cm long) that is attached to two vertical supports 40 cm above a flat surface. When placing the mouse at a point midway between the supports, the experiment was rated according to the following system: 0, falls off; 1, hangs onto bar by two forepaws; 2, as for 1, but attempts to climb onto bar; 3, hangs onto bar by two forepaws plus one or both hindpaws; 4, hangs onto bar by all four paws plus tail wrapped around bar; 5, escape (where mouse was able to work its way to one of the supports). […] The turns in one versus the other direction were recorded from ten trials for each test. Turning movements that were not part of a rearing movement were not scored. […]

[2] = rhDNase-1 vs vehicle, 24 h, p<0.05

B1: rhDNase-1: recombinant human DNase-1 (Dornase alpha, Pulmozyme, Genentech) (protein, UniProt P24855 23-282, looked up)
Deoxyribonuclease-1: LKIAAFNIQTFGETKMSNATLVSYIVQILSRYDIALVQEVRDSHLTAVGKLLDNLNQDAPDTYHYVVSEPLGRNSYKERYLFVYRPDQVSAVDSYYYDDGCEPCGNDTFNREPAIVRFFSRFTEVREFAIVPLHAAPGDAVAEIDALYDVYLDVQEKWGLEDVMLMGDFNAGCSYVRPSQWSSIRLWTSPTFQWLIPDSADTTATPTHCAYDRIVVAGMLLRGAVVPDSALPFNFQAAYGLSDQLAQAISDHYPVEVMLK
In the case of B1, the TRALI outcome (TRALI in BALB/c mice) is reported as “did not improve TRALI outcome”, the brain infarct volume ([1]; 1 h tMCAO, 23 h reperfusion, 50 μg i.p. 15 min before surgery and 12 h later, 10 μg i.v. 5 min before reperfusion, vehicle 81.45±9.08) is reported as 50.67±8.74 mm^3 and the “infarct size smaller than vehicle” value ([1]; 1 h tMCAO, 23 h reperfusion, rhDNase-1 vs vehicle) is reported as “approximately 40%”. The Bederson test score [1, 2] was “significantly better”, the corner test result [1, 2] was “significantly better” and the grip test score [1, 2] was “significantly better”.
